In assay [1] the target is T1, human B7-H4 on cells (human, UniProt Q7Z7D3 25-282).
T1 sequence (looked up): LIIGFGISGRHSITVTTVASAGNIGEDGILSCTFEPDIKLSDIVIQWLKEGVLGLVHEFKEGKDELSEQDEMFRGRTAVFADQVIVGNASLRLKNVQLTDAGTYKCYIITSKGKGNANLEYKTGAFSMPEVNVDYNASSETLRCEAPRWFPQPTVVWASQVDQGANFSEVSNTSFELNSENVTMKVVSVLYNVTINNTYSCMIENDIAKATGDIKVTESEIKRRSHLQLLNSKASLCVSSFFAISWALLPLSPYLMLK
Nature of the assay: cell-based or functional assay.

The target of assay [2] is T2, human CD3 (delta/epsilon heterodimer) (human, UniProt P07766 23-126; P04234 22-105).
T2 construct: captured on an anti-His chip, so it carries a His tag; also called huCD3
T2 sequence (P07766 23-126, stated change not applied, chain 1 of 2): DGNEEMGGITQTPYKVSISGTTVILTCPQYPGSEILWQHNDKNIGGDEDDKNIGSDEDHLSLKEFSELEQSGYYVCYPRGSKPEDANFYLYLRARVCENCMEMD
T2 sequence (P04234 22-105, stated change not applied, chain 2 of 2): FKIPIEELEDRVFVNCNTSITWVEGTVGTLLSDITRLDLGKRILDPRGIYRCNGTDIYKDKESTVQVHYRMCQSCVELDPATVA
Nature of the assay: SPR 37 C; CD3 delta/epsilon on anti-His chip, bispecific analyte; CD3 variant 2B5v598.

Assay [3] deals with T2, human CD3 (delta/epsilon heterodimer). Nature of the assay: SPR 37 C; CD3 delta/epsilon on anti-His chip, bispecific analyte; CD3 variant 2B5c707.

B1: B7-H4xCD3 bispecific antibody 0087 (bispecific antibody, IgG2)
heavy 1: QVQLQQWGAGLLKPSETLSLTCAVYGGSFSGYYWNWIRQPPGKGLEWIGEINHSGSTKYNPSLKSRVTISGDTSKNQFSLKLNSVTAADTAVYYCVRGLYNWNVDSWGQGTLVTVSSASTKGPSVFPLAPCSRSTSESTAALGCLVKDYFPEPVTVSWNSGALTSGVHTFPAVLQSSGLYSLSSVVTVPSSNFGTQTYTCNVDHKPSNTKVDKTVERKCEVECPECPAPPVAGPSVFLFPPKPKDTLMISRTPEVTCVVVAVSHEDPEVQFNWYVDGVEVHNAKTKPREEQFNSTFRVVSVLTVVHQDWLNGKEYKCKVSNKGLPSSIEKTISKTKGQPREPQVYTLPPSREEMTKNQVSLTCEVKGFYPSDIAVEWESNGQPENNYKTTPPMLDSDGSFFLYSKLTVDKSRWQQGNVFSCSVMHEALHNHYTQKSLSLSPG
light 1: DIQMTQSPSSLSASVGDRVTITCRASQGIRNDLGWYQQKPGKAPKRLIYVASSLQSGVPSRFSGSGSGTEFTLTISSLQPEDFATYYCLQHNSYPYTFGQGTKLEIKRTVAAPSVFIFPPSDEQLKSGTASVVCLLNNFYPREAKVQWKVDNALQSGNSQESVTEQDSKDSTYSLSSTLTLSKADYEKHKVYACEVTHQGLSSPVTKSFNRGEC
heavy 2: EVQLVESGGGLVQPGGSLRLSCAASGFTFSDYYMTWVRQAPGKGLEWVAFIRNQDRGYTSDHQPSVKGRFTISRDNAKNSLYLQMNSLRAEDTAVYYCARDRPSYYVLDYWGQGTTVTVSSASTKGPSVFPLAPCSRSTSESTAALGCLVKDYFPEPVTVSWNSGALTSGVHTFPAVLQSSGLYSLSSVVTVPSSNFGTQTYTCNVDHKPSNTKVDKTVERKCRVRCPRCPAPPVAGPSVFLFPPKPKDTLMISRTPEVTCVVVAVSHEDPEVQFNWYVDGVEVHNAKTKPREEQFNSTFRVVSVLTVVHQDWLNGKEYKCKVSNKGLPSSIEKTISKTKGQPREPQVYTLPPSREEMTKNQVSLTCLVKGFYPSDIAVEWESNGQPENNYKTTPPMLDSDGSFFLYSRLTVDKSRWQQGNVFSCSVMHEALHNHYTQKSLSLSPG
light 2: DIQMTQSPSSLSASVGDRVTITCTSDQSLFNVRSGKNYLAWYQQKPGKAPKLLIYWASDRESGVPSRFSGSGSGTDFTLTISSLQPEDFATYYCKQSYDLFTFGGGTKVEIKRTVAAPSVFIFPPSDEQLKSGTASVVCLLNNFYPREAKVQWKVDNALQSGNSQESVTEQDSKDSTYSLSSTLTLSKADYEKHKVYACEVTHQGLSSPVTKSFNRGEC
notes: Chains 1-2: B7-H4 arm; chains 3-4: CD3 arm; IgG2; also called CD3 variant 2B5v598
As a reminder, the Kd is the concentration at which binding is half-saturated. Higher therefore signals weaker binding. The koff is the rate constant with which the complex falls apart. Low values mean a long-lived complex, high ones a short-lived complex. The term kon denotes a measure of how fast the partners come together. A higher kon goes with faster complex formation. With B1, in assay [1], the “T cell mediated tumor cell killing EC50, HCC1954-Luc” value amounted to 57 nM and the “T cell mediated tumor cell killing, MDA-MB-468” value was found to be 109. In addition, in assay [2], binding was characterised by a dissociation constant (Kd) of 124 nM, the koff is 0.0254 s⁻¹ and the kon was 205000 M⁻¹ s⁻¹.

B2: B7-H4xCD3 bispecific antibody 0088 (bispecific antibody, IgG2)
heavy 1: QVQLQQWGAGLLKPSETLSLTCAVYGGSFSGYYWNWIRQPPGKGLEWIGEINHSGSTKYNPSLKSRVTISGDTSKNQFSLKLNSVTAADTAVYYCVRGLYNWNVDSWGQGTLVTVSSASTKGPSVFPLAPCSRSTSESTAALGCLVKDYFPEPVTVSWNSGALTSGVHTFPAVLQSSGLYSLSSVVTVPSSNFGTQTYTCNVDHKPSNTKVDKTVERKCEVECPECPAPPVAGPSVFLFPPKPKDTLMISRTPEVTCVVVAVSHEDPEVQFNWYVDGVEVHNAKTKPREEQFNSTFRVVSVLTVVHQDWLNGKEYKCKVSNKGLPSSIEKTISKTKGQPREPQVYTLPPSREEMTKNQVSLTCEVKGFYPSDIAVEWESNGQPENNYKTTPPMLDSDGSFFLYSKLTVDKSRWQQGNVFSCSVMHEALHNHYTQKSLSLSPG
light 1: DIQMTQSPSSLSASVGDRVTITCRASQGIRNDLGWYQQKPGKAPKRLIYVASSLQSGVPSRFSGSGSGTEFTLTISSLQPEDFATYYCLQHNSYPYTFGQGTKLEIKRTVAAPSVFIFPPSDEQLKSGTASVVCLLNNFYPREAKVQWKVDNALQSGNSQESVTEQDSKDSTYSLSSTLTLSKADYEKHKVYACEVTHQGLSSPVTKSFNRGEC
heavy 2: EVQLVESGGGLVQPGGSLRLSCAASGFTFSDYYMTWVRQAPGKGLEWVAFIRNQARGYTSDHNPSVKGRFTISRDNAKNSLYLQMNSLRAEDTAVYYCARDRHSYYVLDYWGQGTTVTVSSASTKGPSVFPLAPCSRSTSESTAALGCLVKDYFPEPVTVSWNSGALTSGVHTFPAVLQSSGLYSLSSVVTVPSSNFGTQTYTCNVDHKPSNTKVDKTVERKCRVRCPRCPAPPVAGPSVFLFPPKPKDTLMISRTPEVTCVVVAVSHEDPEVQFNWYVDGVEVHNAKTKPREEQFNSTFRVVSVLTVVHQDWLNGKEYKCKVSNKGLPSSIEKTISKTKGQPREPQVYTLPPSREEMTKNQVSLTCLVKGFYPSDIAVEWESNGQPENNYKTTPPMLDSDGSFFLYSRLTVDKSRWQQGNVFSCSVMHEALHNHYTQKSLSLSPG
light 2: DIQMTQSPSSLSASVGDRVTITCTSSQSLFNVRSQKNYLAWYQQKPGKAPKLLIYWASTRESGVPSRFSGSGSGTDFTLTISSLQPEDFATYYCKQSYYLFTFGGGTKVEIKRTVAAPSVFIFPPSDEQLKSGTASVVCLLNNFYPREAKVQWKVDNALQSGNSQESVTEQDSKDSTYSLSSTLTLSKADYEKHKVYACEVTHQGLSSPVTKSFNRGEC
notes: Chains 1-2: B7-H4 arm; chains 3-4: CD3 arm; IgG2; also called CD3 variant 2B5c707
For the molecule B2, in assay [1], the “T cell mediated tumor cell killing EC50, HCC1954-Luc” value worked out at 140 nM and the “T cell mediated tumor cell killing, MDA-MB-468” value is 655. For the same molecule, in assay [3], the dissociation constant (Kd) was determined as 134 nM, the koff stood at 0.0689 s⁻¹ and the kon worked out at 511000 M⁻¹ s⁻¹.
